# ± gives the standard deviation of the averaged measurements.
# What was measured:
# Saccharomyces cerevisiae [1] = assay: protein stability index of tFT-peptide fusion (C-terminal peptide) (PSI (0-1 scale)); higher = more stable (slower turnover); conditions: genetic background: wild type; temperature: 30 C
# Saccharomyces cerevisiae [2] = assay: as above
# Method: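 MPS profiling in S. cerevisiae of the tFT-X12 degron library: putative degron peptides plus stable controls, 12 aa, fused to the C-terminus of a sfGFP-mCherry timer. Cells are FACS-sorted into 8 mCherry/sfGFP bins and deep-sequenced. PSI runs from 0 (unstable) to 1 (stable). Backgrounds are wild type, das1Δ and doa10Δ at 30 °C, and wild type, das1Δ, cdc34-1 and cdc53-1 at 37 °C; 2-3 technical replicates each.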
# [3] = genetic background: cdc34-1, temperature: 37 C
# [4] = genetic background: cdc53-1, temperature: 37 C
# [5] = genetic background: das1 deletion, temperature: 30 C
# [6] = genetic background: das1 deletion, temperature: 37 C
# [7] = genetic background: doa10 deletion, temperature: 30 C
# [8] = genetic background: wild type, temperature: 30 C
# [9] = genetic background: wild type, temperature: 37 C
# 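Further: PSI is a weighted mean of sequencing reads over stability bins, variants kept only with over 10 reads, mCherry proximal and sfGFP distal, peptide attached via GGGS linker.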
Sequence,protein stability index (Saccharomyces cerevisiae [1]),protein stability index (Saccharomyces cerevisiae [2]; [3]),protein stability index (Saccharomyces cerevisiae [2]; [4]),protein stability index (Saccharomyces cerevisiae [2]; [5]),protein stability index (Saccharomyces cerevisiae [2]; [6]),protein stability index (Saccharomyces cerevisiae [2]; [7]),protein stability index (Saccharomyces cerevisiae [2]; [8]),protein stability index (Saccharomyces cerevisiae [2]; [9])
VGVVGVRVLVVV,0.2026 ± 0.0015,0.0407 ± 0.0012,0.1 ± 0.018,0.166 ± 0.032,0.19025 ± 0.00017,0.142 ± 0.01,0.154 ± 0.024,0.17315 ± 8e-05
SHGKDVLNKINS,0.319 ± 0.077,0.608 ± 0.019,0.763 ± 0.045,0.633 ± 0.025,0.72 ± 0.033,0.146 ± 0.0078,0.17 ± 0.013,0.23 ± 0.036
ISLSCRSFFCLS,0.507 ± 0.027,0.61 ± 0.033,0.68 ± 0.011,0.574 ± 0.018,0.6691 ± 0.0065,0.446 ± 0.015,0.462 ± 0.019,0.5854 ± 0.0049
FYLPGLFFVRFR,0.391 ± 0.022,0.167 ± 0.072,0.0822 ± 0.053,0.313 ± 0.043,0.33 ± 0.019,0.616 ± 0.037,0.272 ± 0.026,0.29 ± 0.04
FAVLWFLYWCSW,0.348 ± 0.063,0.347 ± 0.0065,0.376 ± 0.019,0.282 ± 0.026,0.422 ± 0.013,0.245 ± 0.025,0.261 ± 0.044,0.387 ± 0.0054
HPPRSLTLASSS,0.127 ± 0.029,0.696 ± 0.039,0.75 ± 0.014,0.661 ± 0.012,0.754 ± 0.025,0.65 ± 0.019,0.6427 ± 0.0058,0.7137 ± 0.00092
KKNKIYKERKNI,0.434 ± 0.046,0.702 ± 0.17,,0.6248 ± 0.0028,0.7245 ± 0.0029,0.203 ± 0.02,0.289 ± 0.13,0.462 ± 0.064
FFVACCSFVFLL,0.335 ± 0.066,0.369 ± 0.024,0.436 ± 0.03,0.35 ± 0.022,0.478 ± 0.0052,0.197 ± 0.007,0.203 ± 0.022,0.316 ± 0.019
LMPYIIFLMSFQ,0.418 ± 0.014,0.458 ± 0.026,0.496 ± 0.017,0.351 ± 0.027,0.5408 ± 0.0045,0.335 ± 0.028,0.347 ± 0.0081,0.498 ± 0.042
SPLLLIIFRSLC,0.18 ± 0.038,0.505 ± 0.096,0.558 ± 0.0093,0.436 ± 0.039,0.623 ± 0.025,0.107 ± 0.0011,0.119 ± 0.0077,0.183 ± 0.019
FSIFFIIEFVGT,0.242 ± 0.12,0.179 ± 0.038,0.211 ± 0.0069,0.209 ± 0.015,0.374 ± 0.013,0.157 ± 0.011,0.187 ± 0.028,0.324 ± 0.022
IAYCDNGFLVVV,0.521 ± 0.077,0.636 ± 0.037,0.676 ± 0.028,0.548 ± 0.023,0.695 ± 0.019,0.539 ± 0.013,0.563 ± 0.012,0.652 ± 0.012
EVPVIGVLRSLL,0.743 ± 0.043,0.9376 ± 0.009,0.918 ± 0.014,0.804 ± 0.018,0.8784 ± 0.0044,0.773 ± 0.027,0.78 ± 0.023,0.847 ± 0.017
AFRCVVLCWFLK,0.415 ± 0.023,0.31 ± 0.031,0.434 ± 0.0094,0.292 ± 0.038,0.498 ± 0.0098,0.268 ± 0.029,0.281 ± 0.014,0.413 ± 0.011
VNTRIVVRMRHL,0.433 ± 0.014,0.638 ± 0.056,0.701 ± 0.015,0.64 ± 0.014,0.704 ± 0.02,0.339 ± 0.0049,0.348 ± 0.013,0.529 ± 0.0082
LLPLSLSLLLSV,0.453 ± 0.023,0.52 ± 0.015,0.541 ± 0.0062,0.432 ± 0.023,0.5638 ± 0.0033,0.414 ± 0.0064,0.429 ± 0.021,0.53568 ± 0.00041
CCNVLFRVCLFL,0.353 ± 0.048,0.459 ± 0.0095,0.526 ± 0.059,0.405 ± 0.042,0.542 ± 0.022,0.277 ± 0.0045,0.304 ± 0.025,0.4334 ± 0.0041
VVVLRRVIEVMQ,0.342 ± 0.0062,0.327 ± 0.015,0.37 ± 0.025,0.256 ± 0.03,0.448 ± 0.013,0.199 ± 0.0065,0.253 ± 0.027,0.413 ± 0.012
VRGSFRRCLSIA,0.1981 ± 0.0011,0.596 ± 0.011,0.713 ± 0.021,0.623 ± 0.015,0.719 ± 0.012,0.118 ± 0.027,0.142 ± 0.017,0.325 ± 0.011
RWFPPPQYLRLV,0.288 ± 0.011,0.567 ± 0.021,0.648 ± 0.014,0.598 ± 0.02,0.68556 ± 0.00021,0.19 ± 0.032,0.163 ± 0.019,0.397 ± 0.024

Sequence,protein stability index (Saccharomyces cerevisiae [1]),protein stability index (Saccharomyces cerevisiae [2]; [3]),protein stability index (Saccharomyces cerevisiae [2]; [4]),protein stability index (Saccharomyces cerevisiae [2]; [5]),protein stability index (Saccharomyces cerevisiae [2]; [6]),protein stability index (Saccharomyces cerevisiae [2]; [7]),protein stability index (Saccharomyces cerevisiae [2]; [8]),protein stability index (Saccharomyces cerevisiae [2]; [9])
LTPKRLTVCRLC,0.512 ± 0.079,0.553 ± 0.066,0.758 ± 0.012,0.688 ± 0.01,0.7862 ± 0.0057,0.306 ± 0.019,0.318 ± 0.008,0.628 ± 0.066
LVVFFPVLPIFG,0.4965 ± 0.0017,0.504 ± 0.02,0.554 ± 0.0072,0.394 ± 0.027,0.566 ± 0.016,0.383 ± 0.014,0.408 ± 0.0064,0.58 ± 0.077
KVRVRTTCWRKL,0.255 ± 0.019,0.617 ± 0.039,0.686 ± 0.038,0.625 ± 0.015,0.7074 ± 0.0013,0.134 ± 0.0059,0.155 ± 0.014,0.347 ± 0.0065
CKFLYMALLFFW,0.299 ± 0.061,0.278 ± 0.0085,0.364 ± 0.0087,0.263 ± 0.032,0.423 ± 0.025,0.313 ± 0.02,0.288 ± 0.025,0.392 ± 0.00069
VFLNVLDNNRLC,0.464 ± 0.037,0.65 ± 0.078,0.734 ± 0.011,0.662 ± 0.025,0.74 ± 0.0031,0.323 ± 0.011,0.331 ± 0.046,0.622 ± 0.028
GCRSLRLWLTFS,0.443 ± 0.029,0.638 ± 0.018,0.7023 ± 0.0065,0.628 ± 0.02,0.726 ± 0.013,0.299 ± 0.0033,0.312 ± 0.015,0.551 ± 0.024
LLIFGLLAVPSP,0.4771 ± 0.0012,0.585 ± 0.0093,0.587 ± 0.023,0.448 ± 0.028,0.569 ± 0.0093,0.443 ± 0.031,0.457 ± 0.013,0.542 ± 0.042
KKRYSEIFKKNG,0.408 ± 0.05,0.694 ± 0.057,0.728 ± 0.025,0.637 ± 0.016,0.769 ± 0.037,0.211 ± 0.033,0.254 ± 0.023,0.56 ± 0.039
SHTRPPVTAPLH,0.7165 ± 0.0055,0.689 ± 0.026,0.7142 ± 0.0027,0.646 ± 0.0068,0.72895 ± 0.00039,0.668 ± 0.033,0.654 ± 0.014,0.695 ± 0.0075
QTGRVRGFVVSG,0.701 ± 0.048,0.689 ± 0.037,0.726 ± 0.024,0.632 ± 0.032,0.723 ± 0.02,0.645 ± 0.021,0.65 ± 0.008,0.719 ± 0.028
RFLCFDSVLTLC,0.463 ± 0.024,0.626 ± 0.011,0.6674 ± 0.0055,0.56 ± 0.028,0.6748 ± 0.00086,0.32119 ± 0.00015,0.348 ± 0.026,0.546 ± 0.02
LRTYSFTIGTLC,0.385 ± 0.012,0.616 ± 0.052,0.637 ± 0.027,0.471 ± 0.024,0.6402 ± 0.0061,0.241 ± 0.027,0.279 ± 0.035,0.492 ± 0.015
FLISVRFVLILN,0.173 ± 0.024,0.169 ± 0.027,0.186 ± 0.012,0.175 ± 0.021,0.278 ± 0.01,0.143 ± 0.0081,0.135 ± 0.0052,0.208 ± 0.0085
PLLALTSWLFFV,0.254 ± 0.008,0.5467 ± 0.0033,0.6521 ± 0.0011,0.586 ± 0.012,0.689 ± 0.022,0.165 ± 0.0048,0.173 ± 0.0033,0.268 ± 0.0046
WFGGVRVPRHVV,0.455 ± 0.032,0.651 ± 0.034,0.709 ± 0.027,0.668 ± 0.018,0.7484 ± 0.0044,0.394 ± 0.024,0.448 ± 0.018,0.645 ± 0.026
DYIFVYAVMFMR,0.265 ± 0.045,0.14 ± 0.046,0.292 ± 0.046,0.152 ± 0.026,0.319 ± 0.02,0.116 ± 0.0035,0.118 ± 0.031,0.308 ± 0.02
KKNTQKKIKLSC,0.358 ± 0.011,0.629 ± 0.0068,0.733 ± 0.023,0.627 ± 0.035,0.728 ± 0.045,0.15 ± 0.032,0.171 ± 0.011,0.281 ± 0.021
PPHPLHIPRRLA,0.226 ± 0.033,0.631 ± 0.025,0.724 ± 0.026,0.691 ± 0.02,0.743 ± 0.017,0.185 ± 0.0086,0.218 ± 0.022,0.436 ± 0.048
PWIASCRISFLL,0.402 ± 0.0046,0.6766 ± 0.0032,0.734 ± 0.014,0.6 ± 0.0099,0.7393 ± 0.0037,0.338 ± 0.0046,0.347 ± 0.012,0.532 ± 0.029

# — the supplement of paper PMC10724198
